Tests used:
Assay in all cases: holdup assay
Parameters in all cases: key: below the threshold = too weak to quantify, mostly under pKd 3.1 to 4
Conditions in all cases: plain residues with an end cap or a label only (N-terminal biotin on a linker: ado-ado)
[1] = target: DLG1_2, Q12959
[2] = target: DLG2_2, Q15700
[3] = target: DLG2_3, Q15700
[4] = target: DLG5_1, Q8TDM6
[5] = target: GRID2IP_2, A4D2P6
[6] = target: T1, GRIP1_3, Q9Y3R0
T1 sequence (Q9Y3R0 247-346, limits assumed, looked up): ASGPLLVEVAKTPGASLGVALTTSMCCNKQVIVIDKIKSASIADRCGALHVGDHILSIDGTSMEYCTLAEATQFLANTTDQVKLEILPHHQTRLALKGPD

[7] = target: T2, GRIP1_7, Q9Y3R0
T2 sequence (Q9Y3R0 999-1096, limits assumed, looked up): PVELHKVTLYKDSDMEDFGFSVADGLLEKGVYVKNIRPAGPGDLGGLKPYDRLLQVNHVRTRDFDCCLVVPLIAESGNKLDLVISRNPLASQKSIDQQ

[8] = target: GRIP2_7, Q9C0E4
[9] = target: HTRA1, Q92743
[10] = target: Inadl_5, Q8NI35
[11] = target: LIMK2, P53671
[12] = target: T3, LRRC7, Q96NW7
T3 sequence (Q96NW7 1440-1537, limits assumed, looked up): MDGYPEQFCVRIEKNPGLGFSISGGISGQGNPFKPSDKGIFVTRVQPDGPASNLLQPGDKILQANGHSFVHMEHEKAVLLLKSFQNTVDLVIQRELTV

[13] = target: MAGI2_3, Q86UL8
[14] = target: MAGI2_4, Q86UL8
[15] = target: MAST1, Q9Y2H9
[16] = target: T4, MPDZ_5, O75970
T4 sequence (O75970 695-796, limits assumed, looked up): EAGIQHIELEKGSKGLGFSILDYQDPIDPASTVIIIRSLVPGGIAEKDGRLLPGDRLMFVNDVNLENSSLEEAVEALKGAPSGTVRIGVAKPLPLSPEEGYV

[17] = target: T5, MPP7, Q5T2T1
T5 sequence (Q5T2T1 134-230, limits assumed, looked up): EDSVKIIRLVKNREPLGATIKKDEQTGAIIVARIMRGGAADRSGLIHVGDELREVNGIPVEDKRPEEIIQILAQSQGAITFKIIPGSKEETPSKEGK

[18] = target: T6, NHERF3_3, Q5T2W1
T6 sequence (Q5T2W1 238-333, limits assumed, looked up): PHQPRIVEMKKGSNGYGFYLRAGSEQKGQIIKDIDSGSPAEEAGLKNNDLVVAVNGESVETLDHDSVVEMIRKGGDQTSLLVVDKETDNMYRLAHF

[19] = target: T7, NHERF3_4, Q5T2W1
T7 sequence (Q5T2W1 373-468, limits assumed, looked up): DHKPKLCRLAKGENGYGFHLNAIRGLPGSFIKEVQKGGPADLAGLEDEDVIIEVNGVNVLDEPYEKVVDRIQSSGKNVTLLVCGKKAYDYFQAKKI

[20] = target: T8, PCLO, Q9Y6V0
T8 sequence (Q9Y6V0 4491-4600, limits assumed, looked up): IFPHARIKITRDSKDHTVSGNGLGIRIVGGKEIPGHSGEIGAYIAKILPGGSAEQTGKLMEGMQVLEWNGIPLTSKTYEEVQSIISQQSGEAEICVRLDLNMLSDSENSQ

[21] = target: PDZRN4_1, Q6ZMN7
[22] = target: T9, RHPN1, Q8TCX5
T9 sequence (Q8TCX5 508-602, limits assumed, looked up): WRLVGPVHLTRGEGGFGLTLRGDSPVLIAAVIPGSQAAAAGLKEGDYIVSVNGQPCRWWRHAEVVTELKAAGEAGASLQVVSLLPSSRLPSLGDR

[23] = target: T10, SNTA1, Q13424
T10 sequence (Q13424 82-180, limits assumed, looked up): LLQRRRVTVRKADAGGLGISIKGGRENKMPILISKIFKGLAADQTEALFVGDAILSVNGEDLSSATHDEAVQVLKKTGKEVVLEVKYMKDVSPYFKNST

[24] = target: T11, SYNJ2BP, P57105
T11 sequence (P57105 8-110, limits assumed, looked up): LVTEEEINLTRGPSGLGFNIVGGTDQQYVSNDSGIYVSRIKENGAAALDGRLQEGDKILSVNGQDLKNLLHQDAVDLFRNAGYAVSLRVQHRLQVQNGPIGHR

[25] = target: T12, TX1BP3, O14907
T12 sequence (O14907 10-122, limits assumed, looked up): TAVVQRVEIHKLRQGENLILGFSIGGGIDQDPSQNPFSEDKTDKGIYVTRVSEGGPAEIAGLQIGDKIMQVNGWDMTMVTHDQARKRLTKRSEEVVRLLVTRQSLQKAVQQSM

MAST1, Q9Y2H9, sequence (Q9Y2H9 962-1065): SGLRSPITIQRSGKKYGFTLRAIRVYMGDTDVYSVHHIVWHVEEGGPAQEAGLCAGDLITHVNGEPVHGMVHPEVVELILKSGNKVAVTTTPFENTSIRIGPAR
MAGI2_3, Q86UL8, sequence (Q86UL8 600-682): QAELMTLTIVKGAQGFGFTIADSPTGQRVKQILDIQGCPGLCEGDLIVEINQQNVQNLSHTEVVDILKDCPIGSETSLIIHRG
HTRA1, Q92743, sequence (Q92743 360-477): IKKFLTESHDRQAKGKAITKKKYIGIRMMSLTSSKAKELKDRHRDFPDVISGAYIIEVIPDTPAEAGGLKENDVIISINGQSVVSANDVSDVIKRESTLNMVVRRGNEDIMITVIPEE
PDZRN4_1, Q6ZMN7, sequence (Q6ZMN7 213-318): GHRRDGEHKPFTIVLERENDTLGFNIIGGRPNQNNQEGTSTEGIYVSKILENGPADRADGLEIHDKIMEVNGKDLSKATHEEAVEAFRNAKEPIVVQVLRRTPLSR
GRID2IP_2, A4D2P6, sequence (A4D2P6 272-370): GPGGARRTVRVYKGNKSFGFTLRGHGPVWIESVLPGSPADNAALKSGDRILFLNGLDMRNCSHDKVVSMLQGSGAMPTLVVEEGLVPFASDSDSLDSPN
MAGI2_4, Q86UL8, sequence (Q86UL8 772-865): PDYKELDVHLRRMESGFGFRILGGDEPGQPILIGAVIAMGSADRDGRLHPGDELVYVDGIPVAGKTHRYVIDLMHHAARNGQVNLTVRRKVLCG
Inadl_5, Q8NI35, sequence (Q8NI35 673-780): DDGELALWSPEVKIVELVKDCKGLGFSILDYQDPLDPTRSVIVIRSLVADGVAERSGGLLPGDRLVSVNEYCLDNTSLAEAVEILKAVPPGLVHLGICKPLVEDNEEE
DLG5_1, Q8TDM6, sequence (Q8TDM6 617-713): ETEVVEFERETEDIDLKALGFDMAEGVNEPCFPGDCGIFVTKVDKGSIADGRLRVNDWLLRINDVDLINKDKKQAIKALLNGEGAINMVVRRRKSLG
LIMK2, P53671, sequence (P53671 143-248): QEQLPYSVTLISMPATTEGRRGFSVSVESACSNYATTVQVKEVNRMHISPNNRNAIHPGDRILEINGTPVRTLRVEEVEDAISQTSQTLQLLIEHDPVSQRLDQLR
DLG1_2, Q12959, sequence (Q12959 314-412): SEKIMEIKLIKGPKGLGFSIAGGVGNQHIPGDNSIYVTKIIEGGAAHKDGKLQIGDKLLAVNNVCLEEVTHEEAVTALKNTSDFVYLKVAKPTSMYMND
GRIP2_7, Q9C0E4, sequence (Q9C0E4 934-1023): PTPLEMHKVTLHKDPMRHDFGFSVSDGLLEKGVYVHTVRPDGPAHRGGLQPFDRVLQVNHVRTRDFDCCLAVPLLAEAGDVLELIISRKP

Row | Binder | pKd [1] | pKd [2] | pKd [3] | pKd [4] | pKd [5] | pKd [6] | pKd [7] | pKd [8] | pKd [9] | pKd [10] | pKd [11] | pKd [12] | pKd [13] | pKd [14] | pKd [15] | pKd [16] | pKd [17] | pKd [18] | pKd [19] | pKd [20] | other results
1 | RHGSCVETSL [TMEM151B, Q8IW70] | 4.88 | 4.32 | 4.19 | below the threshold | 4.36 | below the threshold | below the threshold | below the threshold | 3.86 | below the threshold | below the threshold | 4.08 | 3.5 | below the threshold | 5.12 | below the threshold | below the threshold | below the threshold | 3.95 | below the threshold | pKd [21]: 5.27; pKd [22]: 5.02; pKd [23]: 4.82; pKd [24]: 5.1; pKd [25]: 4.8
2 | QSLNRMEYIV [JAG1, P78504] | below the threshold | below the threshold | 3.96 | below the threshold | below the threshold | below the threshold | below the threshold | 4.33 | 5.37 | 4.86 | below the threshold | below the threshold | below the threshold | 3.87 | 3.49 | 4.07 | 3.98 | below the threshold | below the threshold | below the threshold | pKd [21]: below the threshold; pKd [22]: below the threshold; pKd [23]: below the threshold; pKd [24]: below the threshold; pKd [25]: below the threshold
3 | GNSVLKSTQF [SLC22A12, Q96S37] | below the threshold | below the threshold | 3.74 | below the threshold | below the threshold | below the threshold | below the threshold | below the threshold | below the threshold | below the threshold | below the threshold | below the threshold | 3.61 | 3.79 | 4.26 | below the threshold | below the threshold | below the threshold | 5.45 | below the threshold | pKd [21]: below the threshold; pKd [22]: below the threshold; pKd [23]: below the threshold; pKd [24]: below the threshold; pKd [25]: below the threshold
4 | VRNLPESEEL [MYOZ3, Q8TDC0] | below the threshold | below the threshold | below the threshold | below the threshold | below the threshold | below the threshold | below the threshold | below the threshold | 3.84 | below the threshold | below the threshold | below the threshold | below the threshold | below the threshold | 4.11 | below the threshold | below the threshold | below the threshold | below the threshold | below the threshold | pKd [21]: below the threshold; pKd [22]: below the threshold; pKd [23]: 3.57; pKd [24]: below the threshold; pKd [25]: below the threshold
